The text below walks through data of article PMC3951674.

For experiment [1], the target named is L43A ubiquitin (UniProt P0CG48). Nature of the experiment: NMR titration.
The target is the same in experiment [2]. The experiment is described as follows: NMR titration. The source holds these as a separate data set.
Experiment [3] has the same target. The experiment is described as follows: 15N T1 relaxation.

Where two headings read alike, the source gives them in different places.

“UBA2 domain of hHR23a (from UniProt P54725 1-363) (domain or fragment)”: the stoichiometry N with L43A ubiquitin [1] was found to be 1.

For the substance “ubiquilin-1 UBA domain (UQ1-UBA) construct (from UniProt Q9UMX0 541-586) (domain or fragment)”, the Kd with L43A ubiquitin [2] was 28 µM; with L43A ubiquitin [1], 26 µM. This substance also yielded a stoichiometry N with L43A ubiquitin [3] of 1.

As a reminder, the stoichiometry N is the number of molecules, sites or subunits per partner or assembly. By Kd is commonly meant the constant that tells how readily two partners part at equilibrium. Lower therefore signals higher affinity.
